Experimental data as given in the supplement of paper PMC9170038.

System: K4 kissing-loop RNA reporter
Assay: apparent KD of K4 kissing-loop reporter; higher = weaker reporter binding
Conditions: Eterna round: R107
Procedure: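 RNA-MaP round R107: designed RNA switches with theophylline, tryptophan, arginine or FMN aptamers are transcribed on-chip within common flanks. They are titrated with a labelled K4 kissing-loop RNA reporter in RNA-MaP buffer (100 mM Tris pH 7.5, 80 mM KCl, 4 mM MgCl2), without ligand or with the indicated ligand. Median apparent KD per design.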

[1] = input ligand: theophylline 20 uM
[2] = input ligand: tryptophan 2.4 mM
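Also: bound reporter read as fluorescence of individual clusters on recovered sequencing chips by microscopy, with normalized cluster intensities fitted with a binding model.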

| Sequence | apparent KD of K4 kissing-loop reporter (input ligand: FMN 200 uM) | apparent KD of K4 kissing-loop reporter (input ligand: arginine 13.2 mM) | apparent KD of K4 kissing-loop reporter (input ligand: none) | apparent KD of K4 kissing-loop reporter [1] | apparent KD of K4 kissing-loop reporter [2] |
| --- | --- | --- | --- | --- | --- |
| UGAUACCAGACGGCCGCCACUCCUGCAAGUCAAAGACUUGCUAAGGAAAUCGUCCAGUGAUGUUGGAGGACCGGGUCUGGUAUCU [TrypBX 17 #SwitchBubble #Palindromic #StaticStem] | 931 nM | 670 nM | 830 nM | 717 nM | 899 nM |
| UGAUAGGACAGAAGGAGCGGAAGUGAUGUUUCCAAAAGGGAAGGUCGACAAAGUCGACCCUUCCAGGUAGGUCGCUGUCCUAUCU [ArgBX 9 #Palindromic #SwitchBubble #StaticStem] | 75.9 nM | 72.5 nM | 73.9 nM | 86.1 nM | 68.7 nM |
| UGAUAGGACAGAAGGAGCGGCAGUGAUGUUGCCAAAAGGUUAAGGUGUCAAAAGACACCCUGCCAGGUAGGUCGCUGUCCUAUCU | 202 nM | 236 nM | 212 nM | 214 nM | 208 nM |
| UGAUAGGACAGAAGGAGCGGUAGUGAUGUUACCAAAAGGAUAAGGUGUCAAAAGACACCCUGCCAGGUAGGUCGCUGUCCUAUCU | 102 nM | 100 nM | 107 nM | 98.8 nM | 87 nM |
| UGAUUGCCAGUGAUGUUGGCAGUGACUGAAGGAGCGCGUGAAAACGCAGGUAGGUCGCAGUUGAGUGCCAAUUGAUCGAAAGAUC [KL-XArg-A5] | 286 nM | 275 nM | 244 nM | 328 nM | 249 nM |
| UGAUUGGCGAAAGUAGUGAUGUUACGAACAUAGGAUAUUAGAGGAAUAAGAAGGAUGAAUGAGAAAGGAAUAAAUUGUUGGUUGG [#08 K4 FMN A Same State] | 139 nM | 64 nM | 165 nM | 193 nM | 102 nM |
| UGCGCUGUGUACUGAAAUGUUAUGCGGGAUACCAGAGUCUUUUUAUUCCCUUGGCAGCUUGAGUGAUGUUUGAUGCCGUUCUUGU [po,,mmullin] | 490 nM | 256 nM | 548 nM | 577 nM | 418 nM |
| UGCGCUGUGUCCUGAAAUGUCCUCCGGGAUACCAGAGUCUUUUUAUUCCCUUGGCAGCUUGAGUGAUGUUUGAUGCCGUUCUUGU [yvvymullin] | 668 nM | 481 nM | 713 nM | 576 nM | 515 nM |
| UGCUUAGUGAUGUUUGAUUUGGUGCAUGCAGAGGAUAUAGGGUGCUUUAGAAGGCUGAGGAGUGCGCCGAGUGAUGUUCGGCGCU [Exclusion FMN A GF11] | 192 nM | 164 nM | 206 nM | 182 nM | 170 nM |
| UGGAGUUGACGAAAAGUCAACUCCCGAGAAGGAGCGGACGAAAGUCCAGGUAGGUCGCUCACUACCAGUGAUGUUGGUACUAAAA | 148 nM | 196 nM | 129 nM | 135 nM | 111 nM |
| UGGAGUUGACGAAAAGUCAACUCCUGAGAUACCAGUGACGAAAGUCACCCUUGGCAGCUCACUGCCAGUGAUGUUGGUAAAUAAA [#OpenEnded 3] | 78.1 nM | 92.5 nM | 159 nM | 568 nM | 81.8 nM |
| UGGAGUUGACGAAAAGUCAACUCCUGGGAAGGAGCGGACGAAAGUCCAGGUAGGUCGCUCACUACCAGUGAUGUUGGUACUAAAA | 144 nM | 351 nM | 296 nM | 200 nM | 215 nM |
| UGGAUAUAGUGAUGUUAUAUAGAGAGUGAUACCAGUUUAGAGAAGAACCCUUGGCAGCAUAGAAGAGUAUCAUUGGAGAAGAAUG [ExTheophyl.Aq] | 243 nM | 193 nM | 242 nM | 181 nM | 155 nM |
| UGGGAUGGUUCGGCCGCCACUAUGGUGCAGUGAUGUUGCAUCGUAGUAAAUCAUUCCAUUUACCGUAGGACCGGGAACCUUACGC [Mavelege] | 108 nM | 82.7 nM | 94.9 nM | 83.4 nM | 86.2 nM |
| UGUACCGAGUCAGGAUAUCAACGACUGACAAAAGUCGGUCGAAUAUCCAGUGAUGUUGGAAAUAAAUGAGAAGGGACUUGGUACU [FmnBS 14 #SwitchBubble #StaticStem] | 125 nM | 258 nM | 276 nM | 264 nM | 265 nM |
| UGUACCGAGUCAGGAUAUCGCGUCGAAAGACGAAACGAGUGAUGUUCGAAUCGAUCGAAAGAUCGUCGAGAAGGGACUUGGUACU [FmnBS 22 #SwitchBubble #StaticStem #DoubleMagnetSystem] | 219 nM | 676 nM | 642 nM | 569 nM | 589 nM |
